In paper PMC10799422, “A role for the ATP-dependent DNA ligase lig E of Neisseria gonorrhoeae in biofilm formation”:

Target: T1, Ngo-Lig E (ATP-dependent DNA ligase Lig E), mature, His-tagged (Neisseria gonorrhoeae MS11, UniProt PDB:8U6X_1 1-279)
T1 sequence: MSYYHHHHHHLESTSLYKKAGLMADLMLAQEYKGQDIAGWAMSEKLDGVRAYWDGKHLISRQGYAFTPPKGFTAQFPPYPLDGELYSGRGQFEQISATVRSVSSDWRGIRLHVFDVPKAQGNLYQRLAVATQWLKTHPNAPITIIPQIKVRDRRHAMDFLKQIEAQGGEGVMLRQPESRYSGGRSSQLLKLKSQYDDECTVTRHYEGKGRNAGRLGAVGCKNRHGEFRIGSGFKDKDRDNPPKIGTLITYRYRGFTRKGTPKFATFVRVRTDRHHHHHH
Experiment: X-ray crystallography (2.44 A); 5 mM EDTA; enzyme-adenylate; open non-catalytic conformation, non-specific engagement of unbroken duplex, only 6 bp visible (averaged register); Crystallization: 478.7 uM protein, 1.2 molar excess DNA, 5 mM EDTA, 1 h on ice; crystals in 0.5 M potassium thiocyanate, 0.1 M Bis Tris Propane pH 8.0, 18 C
Details: protein: recombinant; tags: C-terminal His (N-terminal His-MBP tag cleaved by TEV); nicked duplex, 3 strands; as printed the 9-mer and 11-mer leave a 1-nt gap (C) opposite the 21-mer; blunt outer ends

B1: nicked 21-mer duplex used for co-crystallization (dsDNA)
DNA 1: ATTGCGACC
DNA 2: CACTATCGGAA
DNA 3: TTCCGATAGTGGGGTCGCAAT
modifications: 5'-phosphate on CACTATCGGAA
B1: binds.
